Assay [1] has as its target Human IgG (microarray spot). Nature of the assay: CDI SARS-CoV-2 protein microarray, sample [..]00316 1 ug/mL, positive-control spot Human IgG read by the anti-human IgG secondary, replicate 1.
Assay [2] deals with Human IgG (microarray spot). Briefly: CDI SARS-CoV-2 protein microarray, sample [..]00316 1 ug/mL, positive-control spot Human IgG read by the anti-human IgG secondary, replicate 2.
For assay [3], the target named is Human IgG (microarray spot). Nature of the assay: CDI SARS-CoV-2 protein microarray, sample [..]00347 1 ug/mL, positive-control spot Human IgG read by the anti-human IgG secondary, replicate 1.
Assay [4] concerns the target Human IgG (microarray spot). Briefly: CDI SARS-CoV-2 protein microarray, sample [..]00347 1 ug/mL, positive-control spot Human IgG read by the anti-human IgG secondary, replicate 2.
For assay [5], the target named is ACE2_Fc (microarray spots) (UniProt Q9BYF1). Nature of the assay: CDI SARS-CoV-2 protein microarray, sample [..]00316 1 ug/mL, positive-control spot ACE2_Fc_0.5 read by the anti-human IgG secondary, replicate 1.
The target is the same in assay [6]. Nature of the assay: CDI SARS-CoV-2 protein microarray, sample [..]00316 1 ug/mL, positive-control spot ACE2_Fc_0.5 read by the anti-human IgG secondary, replicate 2.
For assay [7] the target is unchanged. Nature of the assay: CDI SARS-CoV-2 protein microarray, sample [..]00347 1 ug/mL, positive-control spot ACE2_Fc_0.5 read by the anti-human IgG secondary, replicate 1.
The target is the same in assay [8]. Nature of the assay: CDI SARS-CoV-2 protein microarray, sample [..]00347 1 ug/mL, positive-control spot ACE2_Fc_0.5 read by the anti-human IgG secondary, replicate 2.
Assay [9] has the same target. Briefly: CDI SARS-CoV-2 protein microarray, sample [..]00316 1 ug/mL, positive-control spot ACE2_Fc_0.17 read by the anti-human IgG secondary, replicate 1.
The target is the same in assay [10]. Nature of the assay: CDI SARS-CoV-2 protein microarray, sample [..]00316 1 ug/mL, positive-control spot ACE2_Fc_0.17 read by the anti-human IgG secondary, replicate 2.
Assay [11] shares this target. Briefly: CDI SARS-CoV-2 protein microarray, sample [..]00347 1 ug/mL, positive-control spot ACE2_Fc_0.17 read by the anti-human IgG secondary, replicate 1.
The target is the same in assay [12]. Nature of the assay: CDI SARS-CoV-2 protein microarray, sample [..]00347 1 ug/mL, positive-control spot ACE2_Fc_0.17 read by the anti-human IgG secondary, replicate 2.
For assay [13], the target named is SARS-CoV-2 spike (S) protein (SARS-CoV-2) (UniProt P0DTC2). Briefly: cell-based or functional assay.
In assay [14] the target is S1 (SARS-CoV-2) (UniProt P0DTC2). Briefly: protein/peptide microarray, Anti-Hu IgG control alone, replicate 1, spot S1_0.5.
Assay [15] shares this target. Briefly: protein/peptide microarray, Anti-Hu IgG control alone, replicate 2, spot S1_0.5.
The target is the same in assay [16]. Briefly: protein/peptide microarray, Anti-Hu IgG control alone, replicate 1, spot S1_0.17.
Assay [17] has the same target. Briefly: protein/peptide microarray, Anti-Hu IgG control alone, replicate 2, spot S1_0.17.
The target in assay [18] is Human IgG (human). Nature of the assay: protein/peptide microarray, Anti-Hu IgG control alone, replicate 1, spot Human IgG.
The target in assay [19] is Human IgG (human). Nature of the assay: protein/peptide microarray, Anti-Hu IgG control alone, replicate 2, spot Human IgG.
The target in assay [20] is ACE2_Fc (UniProt Q9BYF1). Briefly: protein/peptide microarray, Anti-Hu IgG control alone, replicate 1, spot ACE2_Fc_0.5.
For assay [21], the target named is ACE2_Fc (UniProt Q9BYF1). Nature of the assay: protein/peptide microarray, Anti-Hu IgG control alone, replicate 2, spot ACE2_Fc_0.5.
Assay [22] addresses ACE2_Fc (UniProt Q9BYF1). Nature of the assay: protein/peptide microarray, Anti-Hu IgG control alone, replicate 1, spot ACE2_Fc_0.17.
The target of assay [23] is ACE2_Fc (UniProt Q9BYF1). Briefly: protein/peptide microarray, Anti-Hu IgG control alone, replicate 2, spot ACE2_Fc_0.17.
The target in assay [24] is Human IgG (human). Briefly: protein/peptide microarray, sample [..]00761 10 ug/mL, replicate 1, positive-control spot Human IgG (signal of the anti-human IgG detection).
Assay [25] deals with Human IgG (human). Briefly: protein/peptide microarray, sample [..]00761 10 ug/mL, replicate 2, positive-control spot Human IgG (signal of the anti-human IgG detection).
For assay [26], the target named is ACE2_Fc (UniProt Q9BYF1). Briefly: protein/peptide microarray, sample [..]00761 10 ug/mL, replicate 1, positive-control spot ACE2_Fc_0.5 (signal of the anti-human IgG detection).
In assay [27] the target is ACE2_Fc (UniProt Q9BYF1). Nature of the assay: protein/peptide microarray, sample [..]00761 10 ug/mL, replicate 2, positive-control spot ACE2_Fc_0.5 (signal of the anti-human IgG detection).
For assay [28], the target named is ACE2_Fc (UniProt Q9BYF1). Briefly: protein/peptide microarray, sample [..]00761 10 ug/mL, replicate 1, positive-control spot ACE2_Fc_0.17 (signal of the anti-human IgG detection).
For assay [29], the target named is ACE2_Fc (UniProt Q9BYF1). Briefly: protein/peptide microarray, sample [..]00761 10 ug/mL, replicate 2, positive-control spot ACE2_Fc_0.17 (signal of the anti-human IgG detection).

secondary antibody (Anti-Human IgG): the F532 in assay [1] turned out to be 212; in [2], 164; in assay [3] it was 197; in assay [4], 179; in assay [5], 234; in assay [6], 167. The F532 in assay [7] came to 219; in assay [8], 160; in assay [9], 198; in assay [10], 151; in assay [11], 192; in assay [12], 138. Further, the F635 in assay [1], in [2], in assay [3], in [4], in assay [5] and in assay [6] was 65500 each time. The F635 turned out to be 65500 in assay [7]; 65500 in assay [8]; 65500 in [9]; 60200 in [10]; 65500 in [11]; 65500 in [12]. The Z-Score in assay [1] turned out to be 7.52; in assay [2] it was 7.97; in [3] it was 8.93; in [4], 8.89; in assay [5], 7.52; in [6] it was 7.96. Also, the Z-Score stood at 8.93 in assay [7]; 8.89 in assay [8]; 7.52 in assay [9]; 7.32 in assay [10]; 8.93 in assay [11]; 8.89 in assay [12].

As to REGN10933 (antibody), the IC50, SARS-CoV-2 pseudovirus neutralization assay in [13] was determined as 84.1 ng/mL.

As to Anti-Hu IgG (Control) (antibody), the F635 in [14] worked out at 1560; in assay [15] it was 1230; in assay [16], 1410; in assay [17], 753; in assay [18] it was 65500; in [19] it was 65500. Moreover, the F635 in assay [20], in assay [21], in assay [22], in assay [23], in assay [24] and in [25] was 65500 in each case. The F635 in assay [26], in assay [27], in assay [28] and in assay [29] was 65500 in each case. The Z-Score in assay [14] is 0.1; in [15], 0.06; in assay [16] it was 0.08; in [17], -0.01; in assay [18], 9.27; in assay [19], 9.27. The Z-Score in [20] amounted to 9.27; in [21], 9.27; in assay [22] it was 9.27; in assay [23] it was 9.27; in [24], 7.28; in assay [25], 7.67. Moreover, the Z-Score in assay [26] was 7.28; in assay [27] it was 7.67; in [28], 7.28; in assay [29], 7.67.
